Results published in patent publication EP3583122A1.
Where two headings read alike, the source gives them in different places.

What was measured:
[1] = target: EBOV GP[change] (Ebola virus) (UniProt Q05320)
[2] = target: EBOV GP[change] (Ebola virus) (UniProt Q05320); remark: listed apart in the source
[3] = target: EBOV GP[change] (Ebola virus) (UniProt Q05320); remark: listed apart in the source
[4] = target: EBOV GP[change] (Ebola virus) (UniProt Q05320); remark: listed apart in the source
[5] = target: EBOV GP[change] (Ebola virus) (UniProt Q05320); remark: listed apart in the source
[6] = target: EBOV GP[change] (Ebola virus) (UniProt Q05320); remark: listed apart in the source
[7] = target: EBOV GP[change] (Ebola virus) (UniProt Q05320); remark: listed apart in the source
[8] = target: EBOV GP[change] (Ebola virus) (UniProt Q05320); remark: listed apart in the source
[9] = target: EBOV GP[change] (Ebola virus) (UniProt Q05320); remark: listed apart in the source
[10] = target: EBOV GP[change] (Ebola virus) (UniProt Q05320); remark: listed apart in the source
[11] = target: EBOV GP[change] (Ebola virus) (UniProt Q05320); remark: listed apart in the source

Sequence of EBOV GP[change] (Ebola virus) (Q05320 33-501, chain 1 of 2): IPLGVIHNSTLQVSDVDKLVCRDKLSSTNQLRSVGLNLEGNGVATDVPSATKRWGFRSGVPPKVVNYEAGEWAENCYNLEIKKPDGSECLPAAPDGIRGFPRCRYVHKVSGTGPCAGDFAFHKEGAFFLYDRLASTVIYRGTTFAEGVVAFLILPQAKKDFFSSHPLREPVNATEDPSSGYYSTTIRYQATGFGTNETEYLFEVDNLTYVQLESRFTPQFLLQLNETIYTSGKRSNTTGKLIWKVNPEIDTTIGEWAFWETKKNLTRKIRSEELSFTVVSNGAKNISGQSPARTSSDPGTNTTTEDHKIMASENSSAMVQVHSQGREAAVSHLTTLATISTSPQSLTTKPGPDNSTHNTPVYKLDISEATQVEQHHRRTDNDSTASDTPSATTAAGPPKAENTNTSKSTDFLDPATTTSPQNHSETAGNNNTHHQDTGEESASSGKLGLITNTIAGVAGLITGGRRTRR
Sequence of EBOV GP[change] (Ebola virus) (Q05320 502-650, chain 2 of 2): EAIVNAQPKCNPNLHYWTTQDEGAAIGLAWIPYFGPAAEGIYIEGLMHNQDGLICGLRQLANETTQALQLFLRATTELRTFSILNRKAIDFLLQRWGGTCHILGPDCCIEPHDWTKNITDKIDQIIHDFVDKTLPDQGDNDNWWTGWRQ

B1: PE-87 H108A (antibody, V domains shown)
VH: QVQLVQSGVTLVQPGGSLRVSCAASGFTFSSYAMSWVRQAPGKGLEWVSAISGLGGSTYYADSVKGRFTISRDNSKNTLYLQMNSLRAEDTAVYYCAKDHRVWAAGYAFDYWGQGALVTVSS
VL: DIVLTQSPSTLSASVGDRVTITCRASQSISSWLAWYQQKPGEAPKLLISDASSLESGVPSRFSGSGSGTEFTLTISSLQPDDFATYYCQQYYSSPTFGGGTKVEIK
In the case of B1, the Kd [1] is reported as 18 nM.

B2: PE-87 W103A (antibody, V domains shown)
VH: QVQLVQSGVTLVQPGGSLRVSCAASGFTFSSYAMSWVRQAPGKGLEWVSAISGLGGSTYYADSVKGRFTISRDNSKNTLYLQMNSLRAEDTAVYYCAKDHRVAAAGYHFDYWGQGALVTVSS
VL: DIVLTQSPSTLSASVGDRVTITCRASQSISSWLAWYQQKPGEAPKLLISDASSLESGVPSRFSGSGSGTEFTLTISSLQPDDFATYYCQQYYSSPTFGGGTKVEIK
B2 was tested, and the Kd [2] was 1.3 nM.

B3: PE-87 H100A (antibody, V domains shown)
VH: QVQLVQSGVTLVQPGGSLRVSCAASGFTFSSYAMSWVRQAPGKGLEWVSAISGLGGSTYYADSVKGRFTISRDNSKNTLYLQMNSLRAEDTAVYYCAKDARVWAAGYHFDYWGQGALVTVSS
VL: DIVLTQSPSTLSASVGDRVTITCRASQSISSWLAWYQQKPGEAPKLLISDASSLESGVPSRFSGSGSGTEFTLTISSLQPDDFATYYCQQYYSSPTFGGGTKVEIK
With B3 the Kd [3] was 4.5 nM.

B4: PE-87 V102A (antibody, V domains shown)
VH: QVQLVQSGVTLVQPGGSLRVSCAASGFTFSSYAMSWVRQAPGKGLEWVSAISGLGGSTYYADSVKGRFTISRDNSKNTLYLQMNSLRAEDTAVYYCAKDHRAWAAGYHFDYWGQGALVTVSS
VL: DIVLTQSPSTLSASVGDRVTITCRASQSISSWLAWYQQKPGEAPKLLISDASSLESGVPSRFSGSGSGTEFTLTISSLQPDDFATYYCQQYYSSPTFGGGTKVEIK
B4 gave a Kd [4] of 4 nM.

B5: PE-87 Y111A (antibody, V domains shown)
VH: QVQLVQSGVTLVQPGGSLRVSCAASGFTFSSYAMSWVRQAPGKGLEWVSAISGLGGSTYYADSVKGRFTISRDNSKNTLYLQMNSLRAEDTAVYYCAKDHRVWAAGYHFDAWGQGALVTVSS
VL: DIVLTQSPSTLSASVGDRVTITCRASQSISSWLAWYQQKPGEAPKLLISDASSLESGVPSRFSGSGSGTEFTLTISSLQPDDFATYYCQQYYSSPTFGGGTKVEIK
Binder B5 has a Kd [5] of 5.9 nM.

B6: PE-87 R101A (antibody, V domains shown)
VH: QVQLVQSGVTLVQPGGSLRVSCAASGFTFSSYAMSWVRQAPGKGLEWVSAISGLGGSTYYADSVKGRFTISRDNSKNTLYLQMNSLRAEDTAVYYCAKDHAVWAAGYHFDYWGQGALVTVSS
VL: DIVLTQSPSTLSASVGDRVTITCRASQSISSWLAWYQQKPGEAPKLLISDASSLESGVPSRFSGSGSGTEFTLTISSLQPDDFATYYCQQYYSSPTFGGGTKVEIK
In the case of B6, the Kd [6] is reported as 9.4 nM.

B7: PE-87 D110A (antibody, V domains shown)
VH: QVQLVQSGVTLVQPGGSLRVSCAASGFTFSSYAMSWVRQAPGKGLEWVSAISGLGGSTYYADSVKGRFTISRDNSKNTLYLQMNSLRAEDTAVYYCAKDHRVWAAGYHFAYWGQGALVTVSS
VL: DIVLTQSPSTLSASVGDRVTITCRASQSISSWLAWYQQKPGEAPKLLISDASSLESGVPSRFSGSGSGTEFTLTISSLQPDDFATYYCQQYYSSPTFGGGTKVEIK
With B7 the Kd [7] was 1.3 nM.

B8: PE-87 Y107A (antibody, V domains shown)
VH: QVQLVQSGVTLVQPGGSLRVSCAASGFTFSSYAMSWVRQAPGKGLEWVSAISGLGGSTYYADSVKGRFTISRDNSKNTLYLQMNSLRAEDTAVYYCAKDHRVWAAGAHFDYWGQGALVTVSS
VL: DIVLTQSPSTLSASVGDRVTITCRASQSISSWLAWYQQKPGEAPKLLISDASSLESGVPSRFSGSGSGTEFTLTISSLQPDDFATYYCQQYYSSPTFGGGTKVEIK
Binder B8 has a Kd [8] of 30 nM.

B9: PE-87 G106A (antibody, V domains shown)
VH: QVQLVQSGVTLVQPGGSLRVSCAASGFTFSSYAMSWVRQAPGKGLEWVSAISGLGGSTYYADSVKGRFTISRDNSKNTLYLQMNSLRAEDTAVYYCAKDHRVWAAAYHFDYWGQGALVTVSS
VL: DIVLTQSPSTLSASVGDRVTITCRASQSISSWLAWYQQKPGEAPKLLISDASSLESGVPSRFSGSGSGTEFTLTISSLQPDDFATYYCQQYYSSPTFGGGTKVEIK
For B9, the Kd [9] was 0.03 nM.

B10: PE-87 D99A (antibody, V domains shown)
VH: QVQLVQSGVTLVQPGGSLRVSCAASGFTFSSYAMSWVRQAPGKGLEWVSAISGLGGSTYYADSVKGRFTISRDNSKNTLYLQMNSLRAEDTAVYYCAKAHRVWAAGYHFDYWGQGALVTVSS
VL: DIVLTQSPSTLSASVGDRVTITCRASQSISSWLAWYQQKPGEAPKLLISDASSLESGVPSRFSGSGSGTEFTLTISSLQPDDFATYYCQQYYSSPTFGGGTKVEIK
In the case of B10, the Kd [10] is reported as 74 nM.

B11: PE-87 F109A (antibody, V domains shown)
VH: QVQLVQSGVTLVQPGGSLRVSCAASGFTFSSYAMSWVRQAPGKGLEWVSAISGLGGSTYYADSVKGRFTISRDNSKNTLYLQMNSLRAEDTAVYYCAKDHRVWAAGYHADYWGQGALVTVSS
VL: DIVLTQSPSTLSASVGDRVTITCRASQSISSWLAWYQQKPGEAPKLLISDASSLESGVPSRFSGSGSGTEFTLTISSLQPDDFATYYCQQYYSSPTFGGGTKVEIK
For B11, the Kd [11] was 37 nM.
